# Measurements: US20250002564A1
# What was measured:
# mouse FcRn (mouse) [1] = target: mouse FcRn (mouse) (UniProt Q61559); assay: pH 5.6
# mouse FcγRI (mouse) = mouse FcγRI (mouse) (UniProt P26151)
# mouse FcRn (mouse) [2] = target: mouse FcRn (mouse) (UniProt Q61559)
# mouse FcγRI (mouse), sequence (P26151 25-297 limits assumed): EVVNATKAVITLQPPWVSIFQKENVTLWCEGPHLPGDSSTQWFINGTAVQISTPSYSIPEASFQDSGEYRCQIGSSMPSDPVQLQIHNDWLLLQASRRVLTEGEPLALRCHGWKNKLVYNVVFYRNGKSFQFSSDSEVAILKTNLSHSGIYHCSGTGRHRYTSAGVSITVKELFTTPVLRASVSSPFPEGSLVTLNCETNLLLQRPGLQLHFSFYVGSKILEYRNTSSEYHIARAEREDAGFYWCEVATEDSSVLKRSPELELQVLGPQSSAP
Kd (mouse FcRn (mouse) [1]) [pM],koff (mouse FcRn (mouse) [1]) [s⁻¹],Kd (mouse FcγRI (mouse)) [pM],koff (mouse FcγRI (mouse)) [s⁻¹],kon (mouse FcγRI (mouse)) [M⁻¹ s⁻¹],kon (mouse FcRn (mouse) [2]) [M⁻¹ s⁻¹],Substance
< 1,< 1e-07,< 1,< 1e-07,939000,682000,"mouse surrogate Multabody (HD37 IgG2a scFab and scFc on mouse apoferritin light chain), wild-type Fc"
< 1,< 1e-07,–,–,–,2.4e+06,mouse surrogate Multabody with LALAP Fc
